Earlier results in patent publication US20060188964A1, “Processing for producing and crystallizing G-protein coupled receptors” (priority 2004, published 2006).

System: insulin action in the liver
Conditions: mice; insulin clamp; recombinant protein from HEK-293T cells

B1: resistin: mouse resistin, a highly disulfide-linked hormone naturally secreted from adipocytes; recombinant, hexameric (protein, UniProt Q99P87 21-114, looked up)
Resistin: SSMPLCPIDEAIDKKIKQDFNSLFPNAIKNIGLNCWTVSSRGKLASCPEGTAVLSCSCGSACGSWDIREEKVCHCQCARIDWTAARCCKLQVAS
effect on insulin action: potent antagonist of insulin action in the liver
